{
  "source": "patent US20240287172A1",
  "about": "(SCIRHOM, published 2024)",
  "binders": {"B1": {"name": "antibody 3 (antibody, V domains shown)", "VH": "QVTLKESGPGILQPSQTLSLTCSFSGFSLTTFAMGIGWVRQPSGKGLEWLAHIWWDGEKYNNPVLKSRLTISKDTSKNQVFLRIANVDTPDTATYYCARISSIYYIIDNWGQGTSVTVSS", "VL": "DIVLTQSPATLSVTPGHSVSLSCRASQSISNNLHWYQKKSHESPRLLIKYVSQSISGIPSRFSGSGSGTDFTLSINSVETEDFGMYFCQQSYNWPLTFGAGTKLELK", "notes": "mouse IgG, kappa light chain; also called clone #3; purified antibody 3"}},
  "target": "T1, hiR2-FL-F588H-T7 (human, UniProt Q6PJF5 1-856)",
  "T1 sequence": "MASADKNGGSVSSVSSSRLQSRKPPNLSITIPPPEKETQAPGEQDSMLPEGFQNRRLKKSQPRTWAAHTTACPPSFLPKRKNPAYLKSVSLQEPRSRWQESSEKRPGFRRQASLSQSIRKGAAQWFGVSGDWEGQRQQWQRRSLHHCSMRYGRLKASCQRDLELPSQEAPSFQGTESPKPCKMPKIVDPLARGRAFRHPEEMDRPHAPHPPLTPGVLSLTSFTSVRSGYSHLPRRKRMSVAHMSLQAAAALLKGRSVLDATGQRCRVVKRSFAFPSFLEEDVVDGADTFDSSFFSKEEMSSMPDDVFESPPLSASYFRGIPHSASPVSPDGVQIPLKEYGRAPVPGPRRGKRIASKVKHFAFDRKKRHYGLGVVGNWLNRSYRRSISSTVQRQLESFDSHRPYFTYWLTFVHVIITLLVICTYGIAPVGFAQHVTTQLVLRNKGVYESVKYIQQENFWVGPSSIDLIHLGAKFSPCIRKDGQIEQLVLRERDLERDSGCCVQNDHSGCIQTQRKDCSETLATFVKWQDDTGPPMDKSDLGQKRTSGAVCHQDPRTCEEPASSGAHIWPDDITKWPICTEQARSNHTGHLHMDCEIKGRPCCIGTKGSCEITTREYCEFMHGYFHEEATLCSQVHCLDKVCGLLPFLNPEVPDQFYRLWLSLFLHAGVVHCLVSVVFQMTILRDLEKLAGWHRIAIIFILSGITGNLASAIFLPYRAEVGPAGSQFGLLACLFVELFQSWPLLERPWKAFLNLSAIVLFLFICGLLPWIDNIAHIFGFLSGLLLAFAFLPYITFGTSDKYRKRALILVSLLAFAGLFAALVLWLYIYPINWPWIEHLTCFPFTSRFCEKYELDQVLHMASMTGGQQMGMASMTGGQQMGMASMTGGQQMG",
  "assay": "FACS, MEF-DKO cells, 3 µg/ml",
  "procedure,_shortened": "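Binding read by flow cytometry after a PE goat anti-mouse IgG F(ab′)2 secondary (1:100, on ice, 1 h, dark). Before that, immortalized MEF-DKO lines carrying single-mutant hiR2-FL-T7 constructs were incubated 1 h on ice with 3 μg/ml antibody or FACS buffer alone.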",
  "data": [
    {"binder": "B1", "values": [
      {"measurement": "loss of binding vs wild type", "result": "≥ 30", "unit": "%"}
    ]}
  ]
}
